Assay results as given in the Immune Epitope Database (IEDB).
Values belong to the sequence of their own block, whether it stands above or below them.

Legend:
[1] = target: HLA-A*03:01; experiment: IEDB peptide-MHC binding, purified MHC/competitive/fluorescence; ≥ and ≤ were set here for values at or beyond the usual limits of such assays
[2] = target: HLA-B*15:17; experiment: IEDB peptide-MHC binding, purified MHC/direct/fluorescence; filed as Kd, often an IC50 or EC50 that approximates it; ≥ and ≤ were set here for values at or beyond the usual limits of such assays
[3] = target: HLA-B*57:01; experiment: as above
[4] = target: HLA-B*15:01; experiment: IEDB peptide-MHC binding, purified MHC/competitive/fluorescence; ≥ and ≤ were set here for values at or beyond the usual limits of such assays
[5] = target: HLA-A*11:01; experiment: as above
[6] = target: HLA-A*02:01; experiment: as above
[7] = target: HLA-A*02:02; experiment: IEDB peptide-MHC binding, purified MHC/competitive/radioactivity; filed as Kd, often an IC50 or EC50 that approximates it; ≥ and ≤ were set here for values at or beyond the usual limits of such assays; details: source organism: Human immunodeficiency virus type 1 (CLONE 12)
[8] = target: HLA-A*02:19; experiment: IEDB peptide-MHC binding, purified MHC/competitive/fluorescence; filed as Kd, often an IC50 or EC50 that approximates it; ≥ and ≤ were set here for values at or beyond the usual limits of such assays
[9] = target: HLA-A*02:11; experiment: as above
[10] = target: HLA-A*02:16; experiment: as above
[11] = target: HLA-A*02:12; experiment: as above
[12] = target: HLA-B*39:01; experiment: as above
[13] = target: HLA-A*02:01; experiment: as above
[14] = target: HLA-A*69:01; experiment: as above
[15] = target: HLA-A*24:03; experiment: as above; details: source organism: Listeria monocytogenes serotype 4b str. H7858
[16] = target: HLA-A*02:03; experiment: as above
[17] = target: HLA-B*15:01; experiment: as above
[18] = target: HLA-B*51:01; experiment: as above; details: source organism: Listeria monocytogenes serotype 4b str. H7858
[19] = target: HLA-B*18:01; experiment: as above; details: source organism: Listeria monocytogenes serotype 4b str. H7858
[20] = target: HLA-B*57:01; experiment: as above
[21] = target: HLA-B*27:03; experiment: as above
[22] = target: HLA-A*68:02; experiment: as above
[23] = target: HLA-A*03:01; experiment: as above
[24] = target: HLA-A*26:01; experiment: as above
[25] = target: HLA-B*46:01; experiment: as above
[26] = target: HLA-B*15:01; experiment: IEDB peptide-MHC binding, purified MHC/direct/fluorescence; filed as Kd, often an IC50 or EC50 that approximates it; ≥ and ≤ were set here for values at or beyond the usual limits of such assays
[27] = target: HLA-C*15:02; experiment: as above
[28] = target: HLA-B*58:01; experiment: as above
[29] = target: HLA-A*02:11; experiment: as above; details: source organism: Mycobacterium tuberculosis str. Haarlem
[30] = target: HLA-A*69:01; experiment: as above; details: source organism: Mycobacterium tuberculosis
[31] = target: HLA-B*48:01; experiment: as above; details: source organism: Escherichia coli O157:H7
[32] = target: HLA-A*31:01; experiment: as above; details: source organism: Escherichia coli O157:H7
[33] = target: HLA-B*40:01; experiment: as above; details: source organism: Escherichia coli O157:H7
[34] = target: HLA-B*07:02; experiment: as above; details: source organism: Escherichia coli O157:H7
[35] = target: HLA-B*18:01; experiment: as above; details: source organism: Escherichia coli O157:H7
[36] = target: HLA-A*68:02; experiment: as above; details: source organism: Escherichia coli O157:H7
[37] = target: HLA-A*11:01; experiment: as above; details: source organism: Escherichia coli O157:H7
[38] = target: HLA-A*03:01; experiment: as above; details: source organism: Escherichia coli O157:H7
[39] = target: HLA-A*01:01; experiment: as above; details: source organism: Escherichia coli O157:H7
[40] = target: HLA-B*27:05; experiment: as above; details: source organism: Escherichia coli O157:H7
[41] = target: HLA-B*46:01; experiment: as above; details: source organism: Escherichia coli O157:H7
[42] = target: HLA-A*02:01; experiment: as above; details: source organism: Escherichia coli O157:H7
[43] = source organism: Zaire ebolavirus
[44] = source organism: dengue virus type 3
[45] = source organism: Vaccinia virus WR
[46] = source organism: Human immunodeficiency virus 1
[47] = source organism: Listeria monocytogenes serotype 4b str. H7858
[48] = source organism: Vibrio vulnificus YJ016
[49] = source organism: Sudan ebolavirus
[50] = source organism: Yersinia pestis
[51] = source organism: Escherichia coli O157:H7

Sequence: TIYTSGKRS
IC50 [1, 43]: 37.4 µM

Sequence: ICSAVPVHW
Kd [2, 44]: 0.373 µM
Kd [3, 44]: 0.417 µM

Sequence: ILNTIQFMH
IC50 [4, 45]: ≥ 111 µM
IC50 [5, 45]: 2.68 µM
IC50 [1, 45]: 3.36 µM
IC50 [6, 45]: 5.12 µM

Sequence: QGYSHGDIK
IC50 [5, 45]: 1.79 µM
IC50 [1, 45]: 12.1 µM

Sequence: AIIRILQQL
Kd [7]: 0.374 µM
Kd [8, 46]: 0.116 µM
Kd [9, 46]: 0.00021 µM
Kd [10, 46]: 0.00151 µM
Kd [11, 46]: 0.011 µM
Kd [12, 46]: ≥ 20 µM
Kd [13, 46]: 0.0048 µM
Kd [14, 46]: 0.578 µM

Sequence: ITWPRTRHW
Kd [8, 47]: ≥ 20 µM
Kd [9, 47]: ≥ 20 µM
Kd [15]: ≥ 20 µM
Kd [16, 47]: ≥ 20 µM
Kd [17, 47]: ≥ 20 µM
Kd [10, 47]: ≥ 20 µM
Kd [18]: ≥ 20 µM
Kd [19]: ≥ 20 µM
Kd [20, 47]: 0.033 µM
Kd [21, 47]: ≥ 20 µM
Kd [22, 47]: ≥ 20 µM
Kd [23, 47]: ≥ 20 µM
Kd [11, 47]: ≥ 20 µM
Kd [24, 47]: ≥ 20 µM
Kd [12, 47]: ≥ 20 µM
Kd [25, 47]: ≥ 20 µM
Kd [13, 47]: ≥ 20 µM
Kd [14, 47]: ≥ 20 µM

Sequence: VVFSTSDGK
IC50 [5, 43]: 1.03 µM
IC50 [1, 43]: 4.54 µM
IC50 [6, 43]: ≥ 387 µM

Sequence: KMIDGIGRF
Kd ([26]; source organism: H1N1 swine influenza virus (A/swine/Korea/S10/2004(H1N1))): 0.194 µM
Kd ([27]; source organism: Influenza A virus (A/81/HO)): ≥ 20 µM

Sequence: IALPVAWLF
Kd [8, 48]: ≥ 20 µM
Kd [16, 48]: ≥ 20 µM
Kd [17, 48]: ≥ 20 µM
Kd [10, 48]: ≥ 20 µM
Kd [20, 48]: 0.0624 µM
Kd [21, 48]: ≥ 20 µM
Kd [22, 48]: ≥ 20 µM
Kd [23, 48]: ≥ 20 µM
Kd [11, 48]: ≥ 20 µM
Kd [24, 48]: ≥ 20 µM
Kd [12, 48]: ≥ 20 µM
Kd [25, 48]: ≥ 20 µM
Kd [13, 48]: ≥ 20 µM

Sequence: ITAASLPKT
IC50 [5, 43]: 2.9 µM
IC50 [1, 43]: 30.4 µM
IC50 [6, 43]: 4.9 µM

Sequence: MQISTIGIR
IC50 [4, 49]: 26.5 µM
IC50 [5, 49]: 2.56 µM
IC50 [1, 49]: ≥ 145 µM
IC50 [6, 49]: ≥ 117 µM

Sequence: MAMPEYWQF
Kd [2, 50]: 0.0088 µM
Kd ([27]; source organism: Yersinia pestis Nepal516): ≥ 20 µM
Kd [3, 50]: 0.0237 µM
Kd [28, 50]: 0.0017 µM

Sequence: TVADVRHCL
Kd ([27]; source organism: Vaccinia virus Copenhagen): 0.495 µM

Sequence: RMWEFLDRL
Kd [29]: ≤ 0.001 µM
Kd [30]: 2.18 µM

Sequence: GLYEFTILV
Kd ([27]; source organism: Mycobacterium tuberculosis C): ≥ 20 µM

Kd [26, 51]: ≥ 20 µM
Kd [31]: ≥ 20 µM
Kd [32]: ≥ 20 µM
Kd [2, 51]: ≥ 20 µM
Kd [33]: ≥ 20 µM
Kd [34]: ≥ 20 µM
Kd [35]: ≥ 20 µM
Kd [3, 51]: ≥ 20 µM
Kd [36]: ≥ 20 µM
Kd [37]: 2.24 µM
Kd [38]: 1.63 µM
Kd [28, 51]: ≥ 20 µM
Kd [39]: ≥ 20 µM
Kd [40]: ≥ 20 µM
Kd [41]: ≥ 20 µM
Kd [42]: ≥ 20 µM
Sequence: WLSVIAFGK

Sequence: KIFLHFSIL
Kd ([27]; source organism: Rickettsia sibirica 246): 0.919 µM
